B1: Latent-transforming growth factor beta-binding protein 4 (Homo sapiens), Q8N2S1-1 (parent)
chain: MPRPGTSGRRPLLLVLLLPLFAAATSAASPSPSPSQVVEVPGVPSRPASVAVCRCCPGQTSRRSRCIRAFCRVRSCQPKKCAGPQRCLNPVPAVPSPSPSVRKRQVSLNWQPLTLQEARALLKRRRPRGPGGRGLLRRRPPQRAPAGKAPVLCPLICHNGGVCVKPDRCLCPPDFAGKFCQLHSSGARPPAPAVPGLTRSVYTMPLANHRDDEHGVASMVSVHVEHPQEASVVVHQVERVSGPWEEADAEAVARAEAAARAEAAAPYTVLAQSAPREDGYSDASGFGYCFRELRGGECASPLPGLRTQEVCCRGAGLAWGVHDCQLCSERLGNSERVSAPDGPCPTGFERVNGSCEDVDECATGGRCQHGECANTRGGYTCVCPDGFLLDSSRSSCISQHVISEAKGPCFRVLRDGGCSLPILRNITKQICCCSRVGKAWGRGCQLCPPFGSEGFREICPAGPGYHYSASDLRYNTRPLGQEPPRVSLSQPRTLPATSRPSAGFLPTHRLEPRPEPRPDPRPGPELPLPSIPAWTGPEIPESGPSSGMCQRNPQVCGPGRCISRPSGYTCACDSGFRLSPQGTRCIDVDECRRVPPPCAPGRCENSPGSFRCVCGPGFRAGPRAAECLDVDECHRVPPPCDLGRCENTPGSFLCVCPAGYQAAPHGASCQDVDECTQSPGLCGRGACKNLPGSFRCVCPAGFRGSACEEDVDECAQEPPPCGPGRCDNTAGSFHCACPAGFRSRGPGAPCQDVDECARSPPPCTYGRCENTEGSFQCVCPMGFQPNTAGSECEDVDECENHLACPGQECVNSPGSFQCRTCPSGHHLHRGRCTDVDECSSGAPPCGPHGHCTNTEGSFRCSCAPGYRAPSGRPGPCADVNECLEGDFCFPHGECLNTDGSFACTCAPGYRPGPRGASCLDVDECSEEDLCQSGICTNTDGSFECICPPGHRAGPDLASCLDVDECRERGPALCGSQRCENSPGSYRCVRDCDPGYHAGPEGTCDDVDECQEYGPEICGAQRCENTPGSYRCTPACDPGYQPTPGGGCQDVDECRNRSFCGAHAVCQNLPGSFQCLCDQGYEGARDGRHCVDVNECETLQGVCGAALCENVEGSFLCVCPNSPEEFDPMTGRCVPPRTSAGTFPGSQPQAPASPVLPARPPPPPLPRRPSTPRQGPVGSGRRECYFDTAAPDACDNILARNVTWQECCCTVGEGWGSGCRIQQCPGTETAEYQSLCPHGRGYLAPSGDLSLRRDVDECQLFRDQVCKSGVCVNTAPGYSCYCSNGYYYHTQRLECIDNDECADEEPACEGGRCVNTVGSYHCTCEPPLVLDGSQRRCVSNESQSLDDNLGVCWQEVGADLVCSHPRLDRQATYTECCCLYGEAWGMDCALCPAQDSDDFEALCNVLRPPAYSPPRPGGFGLPYEYGPDLGPPYQGLPYGPELYPPPALPYDPYPPPPGPFARREAPYGAPRFDMPDFEDDGGPYGESEAPAPPGPGTRWPYRSRDTRRSFPEPEEPPEGGSYAGSLAEPYEELEAEECGILDGCTNGRCVRVPEGFTCRCFDGYRLDMTRMACVDINECDEAEAASPLCVNARCLNTDGSFRCICRPGFAPTHQPHHCAPARPRA

Variants of: B1
Conditions: with tgfb1_human TGFB1, P01137
Sequence of tgfb1_human TGFB1, P01137 (P01137 whole entry): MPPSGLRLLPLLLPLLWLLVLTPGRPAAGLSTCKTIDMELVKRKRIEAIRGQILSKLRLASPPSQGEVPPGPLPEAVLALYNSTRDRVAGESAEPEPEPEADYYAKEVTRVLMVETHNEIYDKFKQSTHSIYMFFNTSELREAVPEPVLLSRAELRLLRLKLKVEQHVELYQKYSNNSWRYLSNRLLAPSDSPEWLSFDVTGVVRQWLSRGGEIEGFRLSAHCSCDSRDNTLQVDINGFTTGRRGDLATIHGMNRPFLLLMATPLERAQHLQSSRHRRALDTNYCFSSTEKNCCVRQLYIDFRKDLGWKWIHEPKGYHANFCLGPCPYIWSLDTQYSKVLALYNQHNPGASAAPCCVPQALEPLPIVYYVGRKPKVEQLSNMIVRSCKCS

Row | Variant | effect of a mutation on the interaction
1 | T1141M | with no effect
2 | V194I;T787A;T820A;T1141M | with no effect
